Laboratory results from the supplement of paper PMC11246515.
± gives the standard deviation of the averaged measurements.

Assay: total protein half-life in vivo (active degradation + dilution); higher = more stable protein
[1] = E. coli NCM3722 delta-clpP delta-lon delta-hslV, growth: N-lim chemostat, doubling time 6 h
[2] = E. coli NCM3722 delta-clpP, growth: N-lim chemostat, doubling time 6 h
[3] = E. coli NCM3722 delta-hslV, growth: N-lim chemostat, doubling time 6 h
[4] = E. coli NCM3722 delta-lon, growth: N-lim chemostat, doubling time 6 h
[5] = E. coli NCM3722 delta-smpB, growth: N-lim chemostat, doubling time 6 h
[6] = wild type E. coli NCM3722, growth: C-lim chemostat, doubling time 3 h
[7] = wild type E. coli NCM3722, growth: C-lim chemostat, doubling time 6 h
[8] = wild type E. coli NCM3722, growth: C-lim chemostat, doubling time 12 h
[9] = wild type E. coli NCM3722, growth: N-lim chemostat, doubling time 6 h
[10] = wild type E. coli NCM3722, growth: N-lim chemostat, doubling time 12 h
[11] = wild type E. coli NCM3722, growth: P-lim chemostat, doubling time 6 h
[12] = wild type E. coli NCM3722, growth: P-lim chemostat, doubling time 12 h

| Sequence | total protein half-life in vivo [1] | total protein half-life in vivo [2] | total protein half-life in vivo [3] | total protein half-life in vivo [4] | total protein half-life in vivo [5] | total protein half-life in vivo [6] | total protein half-life in vivo [7] | total protein half-life in vivo [8] | total protein half-life in vivo [9] | total protein half-life in vivo [10] | total protein half-life in vivo [11] | total protein half-life in vivo [12] |
| --- | --- | --- | --- | --- | --- | --- | --- | --- | --- | --- | --- | --- |
| MSQRGLEALLRPKSIAVIGASMKPNRAGYLMMRNLLAGGFNGPVLPVTPAWKAVLGVLAWPDIASLPFTPDLAVLCTNASRNLALLEELGEKGCKTCIILSAPASQHEDLRACALRHNMRLLGPNSLGLLAPWQGLNASFSPVPIKRGKLAFISQSAAVSNTILDWAQQRKMGFSYFIALGDSLDIDVDELLDYLARDSKTSAILLYLEQLSDARRFVSAARSASRNKPILVIKSGRSPAAQRLLNTTAGMDPAWDAAIQRAGLLRVQDTHELFSAVETLSHMRPLRGDRLMIISNGAAPAALALDALWSRNGKLATLSEETCQKLRDALPEHVAISNPLDLRDDASSEHYIKTLDILLHSQDFDALMVIHSPSAAAPATESAQVLIEAVKHHPRSKYVSLLTNWCGEHSSQEARRLFSEAGLPTYRTPEGTITAFMHMVEYRRNQKQLRETPALPSNLTSNTAEAHLLLQQAIAEGATSLDTHEVQPILQAYGMNTLPTWIASDSTEAVHIAEQIGYPVALKLRSPDIPHKSEVQGVMLYLRTANEVQQAANAIFDRVKMAWPQARVHGLLVQSMANRAGAQELRVVVEHDPVFGPLIMLGEGGVEWRPEDQAVVALPPLNMNLARYLVIQGIKSKKIRARSALRPLDVAGLSQLLVQVSNLIVDCPEIQRLDIHPLLASGSEFTALDVTLDISPFEGDNESRLAVRPYPHQLEEWVELKNGERCLFRPILPEDEPQLQQFISRVTKEDLYYRYFSEINEFTHEDLANMTQIDYDREMAFVAVRRIDQTEEILGVTRAISDPDNIDAEFAVLVRSDLKGLGLGRRLMEKLITYTRDHGLQRLNGITMPNNRGMVALARKLGFNVDIQLEEGIVGLTLNLAQREES | 5.32 ± 0.66 h | 5.3 ± 0.37 h | 4.54 ± 0.15 h | 4.46 ± 0.67 h | 4.92 ± 0.72 h | 3.28 ± 0.35 h | 6.133 ± 0.015 h | 12.2 ± 0.95 h | 5 ± 0.23 h | 7.46 ± 0.52 h | 6.35 ± 0.48 h | 14.1 ± 0.23 h |
| MSQTSTLKGQCIAEFLGTGLLIFFGVGCVAALKVAGASFGQWEISVIWGLGVAMAIYLTAGVSGAHLNPAVTIALWLFACFDKRKVIPFIVSQVAGAFCAAALVYGLYYNLFFDFEQTHHIVRGSVESVDLAGTFSTYPNPHINFVQAFAVEMVITAILMGLILALTDDGNGVPRGPLAPLLIGLLIAVIGASMGPLTGFAMNPARDFGPKVFAWLAGWGNVAFTGGRDIPYFLVPLFGPIVGAIVGAFAYRKLIGRHLPCDICVVEEKETTTPSEQKASL [P0AER0] | – | – | – | – | – | 2.07 h | 4.17 h | 6.363 ± 0.04 h | – | – | – | – |
| MSQVQSGILPEHCRAAIWIEANVKGEVDALRAASKTFADKLATFEAKFPDAHLGAVVAFGNNTWRALSGGVGAEELKDFPGYGKGLAPTTQFDVLIHILSLRHDVNFSVAQAAMEAFGDCIEVKEEIHGFRWVEERDLSGFVDGTENPAGEETRREVAVIKDGVDAGGSYVFVQRWEHNLKQLNRMSVHDQEMVIGRTKEANEEIDGDERPETSHLTRVDLKEDGKGLKIVRQSLPYGTASGTHGLYFCAYCARLHNIEQQLLSMFGDTDGKRDAMLRFTKPVTGGYYFAPSLDKLMAL | 3.34 ± 0.63 h | 3.25 ± 0.84 h | 3.36 ± 0.15 h | 3.73 ± 0.79 h | 3.14 ± 0.27 h | 2.96 ± 0.12 h | – | 8.52 ± 2.9 h | 3.18 ± 0.17 h | 4.17 ± 0.094 h | 5.09 ± 0.12 h | 9.66 ± 0.84 h |
| MSQVSTEFIPTRIAILTVSNRRGEEDDTSGHYLRDSAQEAGHHVVDKAIVKENRYAIRAQVSAWIASDDVQVVLITGGTGLTEGDQAPEALLPLFDREVEGFGEVFRMLSFEEIGTSTLQSRAVAGVANKTLIFAMPGSTKACRTAWENIIAPQLDARTRPCNFHPHLKK [P0AEZ9] | 5.88 ± 0.086 h | 5.83 ± 0.34 h | 5.23 ± 0.43 h | 5.076 ± 0.019 h | 4.7 ± 0.21 h | 3.17 ± 0.28 h | 5.99 ± 0.53 h | 10.3 ± 1.4 h | 4.7 ± 0.53 h | 8.21 ± 0.61 h | 6.07 ± 0.18 h | 13.4 ± 0.48 h |
| MSRFIPIELHHASRLLNHGPTVLITSFDEQSQRRNIMAAAWSMPVEFEPPRVAIVVDKSTWTRELIEHNGKFGIVIPGVAATNWTWAVGSVSGRDEDKFNCYGIPVVRGPVFGLPLVEEKCLAWMECRLLPATSAQEEYDTLFGEVVSAAADARVFVEGRWQFDDDKLNTLHHLGAGTFVTSGKRVTAG | 5.07 ± 0.36 h | 4.49 ± 0.06 h | 4.12 ± 0.3 h | 4.25 ± 0.39 h | 4.19 ± 0.066 h | 2.96 ± 0.065 h | 4.15 ± 0.89 h | 9.97 ± 0.71 h | 4.27 ± 0.46 h | 6.92 ± 0.15 h | 5.45 ± 0.67 h | 10.4 ± 0.57 h |
| MSRINKFVLTVSLLIFIMISAVACGIYTQMVKERVYSLKQSVIDTAFAVANIAEYRRSVAIDLINTLNPTEEQLLVGLRTAYADSVSPSYLYDVGPYLISSDECIQVKEFEKNYCADIMQVVKYRHVKNTGFISFDGKTFVYYLYPVTHNRSLIFLLGLERFSLLSKSLAMDSENLMFSLFKNGKPVTGDEYNAKNAIFTVSEAMEHFAYLPTGLYVFAYKKDVYLRVCTLIIFFAALVAVISGASCLYLVRRVINRGIVEKEAIINNHFERVLDGGLFFSAADVKKLYSMYNSAFLDDLTKAMGRKSFDEDLKALPEKGGYLCLFDVDKFKNINDTFGHLLGDEVLMKVVKILKSQIPVDKGKVYRFGGDEFAVIYTGGTLEELLSILKEIVHFQVGSINLSTSIGVAHSNECPTVERLKMLADERLYKSKKNGRAQISWQ | – | – | – | – | 5.51 ± 1.1 h | – | 5.63 ± 1.6 h | – | 6.47 ± 1.1 h | – | 6.08 ± 0.31 h | 13.1 ± 1.4 h |
